Experimental data: paper PMC3547847, “A Newly Uncovered Group of Distantly Related Lysine Methyltransferases Preferentially Interact with Molecular Chaperones to Regulate Their Activity” (PLoS Genetics, 2013)

Assays:
Assay in all cases: pull-down; 500 ng GST-tagged METTL21D with 100 ng His-tagged protein and Glutathione Sepharose 4B beads, 1 hour at 4°C, 50 mM NaCl, 50 mM HEPES-KOH pH 7.6, 0.1% NP-40, 0.5% charcoal-stripped FBS; bound His-tagged proteins detected by anti-6X His Western blot; AdoMet or AdoHcy present in Figure 6E; VCP and ASPSCR1 also added together (more binding)
Conditions in all cases: both partners purified
[1] = target: T1, ASPSCR1-His (human, UniProt Q9BZE9 1-553)
T1 construct: ASPSCR1/UBXD9, human; also called full-length ASPSCR1; His-tagged ASPSCR1; source: E. coli One Shot BL21 Star (DE3), purified (Ni-NTA Agarose)
T1 sequence (looked up): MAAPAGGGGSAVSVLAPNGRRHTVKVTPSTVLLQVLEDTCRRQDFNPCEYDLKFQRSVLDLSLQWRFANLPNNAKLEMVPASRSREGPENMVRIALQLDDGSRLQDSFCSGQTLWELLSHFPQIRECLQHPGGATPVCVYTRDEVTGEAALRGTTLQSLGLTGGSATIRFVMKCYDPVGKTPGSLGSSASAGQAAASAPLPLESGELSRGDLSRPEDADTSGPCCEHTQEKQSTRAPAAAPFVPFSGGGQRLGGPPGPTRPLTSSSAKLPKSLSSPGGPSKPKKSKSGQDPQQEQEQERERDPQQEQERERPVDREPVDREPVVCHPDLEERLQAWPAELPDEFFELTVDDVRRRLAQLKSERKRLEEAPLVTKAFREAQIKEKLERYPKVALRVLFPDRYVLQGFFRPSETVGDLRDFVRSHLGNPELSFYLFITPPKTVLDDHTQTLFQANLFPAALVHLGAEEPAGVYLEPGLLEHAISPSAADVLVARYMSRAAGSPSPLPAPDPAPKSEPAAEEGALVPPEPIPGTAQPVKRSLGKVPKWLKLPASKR

[2] = target: T2, VCP-His R191Q (human, UniProt P55072 1-806, R191Q)
T2 construct: VCP/p97, human, with the IBMPFD- and ALS-linked substitution R191Q; also called VCP mutant R191Q; source: E. coli One Shot BL21 Star (DE3), purified (Ni-NTA Agarose)
T2 sequence (P55072 whole entry R191Q): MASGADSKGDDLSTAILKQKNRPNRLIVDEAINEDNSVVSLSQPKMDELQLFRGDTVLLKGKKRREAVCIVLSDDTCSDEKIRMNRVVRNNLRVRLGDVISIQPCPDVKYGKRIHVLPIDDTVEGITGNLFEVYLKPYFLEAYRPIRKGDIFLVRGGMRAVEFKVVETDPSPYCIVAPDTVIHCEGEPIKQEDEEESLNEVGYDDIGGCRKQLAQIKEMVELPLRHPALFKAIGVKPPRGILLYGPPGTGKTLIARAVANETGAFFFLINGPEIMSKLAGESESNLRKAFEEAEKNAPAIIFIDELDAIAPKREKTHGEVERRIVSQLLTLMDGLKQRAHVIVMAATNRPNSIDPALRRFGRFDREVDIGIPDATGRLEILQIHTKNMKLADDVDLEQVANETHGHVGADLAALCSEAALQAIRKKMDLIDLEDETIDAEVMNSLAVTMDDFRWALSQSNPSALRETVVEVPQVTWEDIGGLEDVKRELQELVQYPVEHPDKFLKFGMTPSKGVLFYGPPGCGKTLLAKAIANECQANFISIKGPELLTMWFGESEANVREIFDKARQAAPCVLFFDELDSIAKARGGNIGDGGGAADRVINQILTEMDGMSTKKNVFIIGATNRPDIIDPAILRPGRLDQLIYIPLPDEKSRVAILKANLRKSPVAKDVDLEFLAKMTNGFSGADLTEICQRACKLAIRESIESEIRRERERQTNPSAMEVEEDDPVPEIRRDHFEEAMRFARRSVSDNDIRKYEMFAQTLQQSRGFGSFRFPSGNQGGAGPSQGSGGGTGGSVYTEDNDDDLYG

[3] = target: T3, VCP-His (human, UniProt P55072 1-806)
T3 construct: VCP/p97, human; also called His-tagged VCP; wild-type VCP-His; source: E. coli One Shot BL21 Star (DE3), purified (Ni-NTA Agarose)
T3 sequence (P55072 whole entry): as the sequence (P55072 whole entry R191Q) above, with Q191R counted along it

[4] = target: T4, VCP-His R155H (human, UniProt P55072 1-806, R155H)
T4 construct: VCP/p97, human, with the IBMPFD- and ALS-linked substitution R155H; also called VCP mutant R155H; source: E. coli One Shot BL21 Star (DE3), purified (Ni-NTA Agarose)
T4 sequence (P55072 whole entry R155H): as the sequence (P55072 whole entry R191Q) above, with R155H, Q191R counted along it

[5] = target: T5, VCP-His R159G (human, UniProt P55072 1-806, R159G)
T5 construct: VCP/p97, human, with the ALS-linked substitution R159G; also called VCP mutant R159G; source: E. coli One Shot BL21 Star (DE3), purified (Ni-NTA Agarose)
T5 sequence (P55072 whole entry R159G): as the sequence (P55072 whole entry R191Q) above, with R159G, Q191R counted along it

[6] = target: T6, C-terminal fragment of ASPSCR1 (residues 280–553) (human, UniProt Q9BZE9 280-553)
T6 construct: ASPSCR1/UBXD9, human, residues 280-553; also called C-terminal half of ASPSCR1; source: E. coli One Shot BL21 Star (DE3), purified (Ni-NTA Agarose)
T6 sequence (looked up): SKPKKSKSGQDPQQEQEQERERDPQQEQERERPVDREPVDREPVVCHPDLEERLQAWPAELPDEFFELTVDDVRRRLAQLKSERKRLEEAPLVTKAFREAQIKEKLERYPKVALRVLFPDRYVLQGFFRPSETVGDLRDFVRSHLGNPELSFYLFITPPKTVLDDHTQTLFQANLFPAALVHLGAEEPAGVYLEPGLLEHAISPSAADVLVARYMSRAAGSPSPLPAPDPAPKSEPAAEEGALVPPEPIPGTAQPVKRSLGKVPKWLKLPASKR

Measured: binding result

B1: GST-METTL21D (enzyme, human, UniProt Q9H867 1-229, looked up)
chain: MADTLESSLEDPLRSFVRVLEKRDGTVLRLQQYSSGGVGCVVWDAAIVLSKYLETPEFSGDGAHALSRRSVLELGSGTGAVGLMAATLGADVVVTDLEELQDLLKMNINMNKHLVTGSVQAKVLKWGEEIEGFPSPPDFILMADCIYYEESLEPLLKTLKDISGFETCIICCYEQRTMGKNPEIEKKYFELLQLDFDFEKIPLEKHDEEYRSEDIHIIYIRKKKSKFPS
notes: METTL21D, human; also called GST-tagged METTL21D; wild type METTL21D; source: E. coli One Shot BL21 Star (DE3), purified (Glutathione Sepharose 4B)
binds: [1] | [2] | [3] | [4] | [5] | [6]
